According to patent US20260176627A1 (University of Washington, published 2026):

Target: T1, NLS-λN-GFP1-10
T1 construct: also called LambdaN-GFP1-10; second protein of pCMV::GFP11-NLS-MCP-IRES-NLS-λN-GFP1-10; not shown: my translati
Experiment: split-GFP complementation, fluorescence in transfected HEK293T cells

B1: GFP11-NLS-MCP (other, not shown: small tags and cut ends)
chain: MRDHMVLHESVNAAGITASNFTQFVLVDNGGTGDVTVAPSNFANGVAEWISSNSRSQAYKVTCSVRQSSAQKRKYTIKVEVPKVATQTVGGVELPVAAWRSYLNMELTIPIFATNSDCELIVKAMQGLLKDGNPIPSAIAANSGLY
notes: linker and NLS are known only from the DNA; also called first protein of pCMV::GFP11-NLS-MCP-IRES-NLS-λN-GFP1-10; Split-GFP-RNAadaptor (one of the pair)
- binding result: binds
